Target: netrin-1 secreted by mouse macrophages (conditioned medium of oxLDL-, CoCl2-, HIF-1alpha- or palmitate-treated macrophages) (mouse) (UniProt O09118)
Assay: cell-based or functional assay

inhibition of migration of naive macrophages to CCL19 by Ntn1+/+ conditioned medium with UNC5b-Fc: 25%
Substance: recombinant rat UNC5b-Fc chimera (cat #1006-UN, R&D Systems) (from UniProt O08722 27-373) (Fc fusion)

Source: US20210113687A1, “METHODS FOR TREATING INFLAMMATION” (NEW YORK UNIVERSITY, priority 2013, published 2021)
